According to US20230105982A1 (Merck Sharp & Dohme, published 2023):
Starred links: 1 amine or outer side, 2 acyl side, 3 side chain; linkers in the order of their positions; H or OH if unused. Non-standard residues stand in square brackets, D forms with d. Groups on a side chain read outwards from the residue. No end group written: not given here. *: point of attachment. C16 = C16 fatty acyl group, not further defined; C18 diacid = O=C(O)CCCCCCCCCCCCCCCCC(=O)*; Lys(N3) = [N-]=[N+]=NCCCC[C@H](N)C(=O)O; γGlu = O=C(O)[C@H](CCC(=O)[*:2])N[*:1]; Met(O2) = CS(=O)(=O)CC[C@H](N)C(=O)O; Palmitoyl = CCCCCCCCCCCCCCCC(=O)*; AEEA = NCCOCCOCC(=O)O; Aib = CC(C)(N)C(=O)O

B1: PEP1 (peptide)
peptide: H[dS]QGTFTSDK([γGlu-γGlu-C16])SKYLDERAAQ[Lys(N3)]FVQWLLDT-NH2
B2: PEP30 (peptide)
peptide: H[Aib]QGTFTSDYSKYLDARAAK([AEEA-AEEA-γGlu-C18 diacid])DFV[Lys(N3)]WL[Met(O2)]DT-NH2
B3: PEP31 (peptide)
peptide: H[Aib]QGTFTSDYSKYLDARAAK([AEEA-AEEA-γGlu-C20‑OH])DFV[Lys(N3)]WL[Met(O2)]DT-NH2
B4: PEP76 (control molecule of Table 7) (peptide)
peptide: H[dS]QGTFTSDK([γGlu-γGlu-Palmitoyl])SKYLDERAAQDFVQWLLDT-NH2
modifications: N-terminus assumed
SMILES: CCCCCCCCCCCCCCCC(=O)N[C@@H](CCC(=O)N[C@@H](CCC(=O)NCCCC[C@H](NC(=O)[C@H](CC(=O)O)NC(=O)[C@H](CO)NC(=O)[C@@H](NC(=O)[C@H](Cc1ccccc1)NC(=O)[C@@H](NC(=O)CNC(=O)[C@H](CCC(N)=O)NC(=O)[C@@H](CO)NC(=O)[C@@H](N)Cc1c[nH]cn1)[C@@H](C)O)[C@@H](C)O)C(=O)N[C@@H](CO)C(=O)N[C@@H](CCCCN)C(=O)N[C@@H](Cc1ccc(O)cc1)C(=O)N[C@@H](CC(C)C)C(=O)N[C@@H](CC(=O)O)C(=O)N[C@@H](CCC(=O)O)C(=O)N[C@@H](CCCNC(=N)N)C(=O)N[C@@H](C)C(=O)N[C@@H](C)C(=O)N[C@@H](CCC(N)=O)C(=O)N[C@@H](CC(=O)O)C(=O)N[C@@H](Cc1ccccc1)C(=O)N[C@H](C(=O)N[C@@H](CCC(N)=O)C(=O)N[C@@H](Cc1c[nH]c2ccccc12)C(=O)N[C@@H](CC(C)C)C(=O)N[C@@H](CC(C)C)C(=O)N[C@@H](CC(=O)O)C(=O)N[C@H](C(N)=O)[C@@H](C)O)C(C)C)C(=O)O)C(=O)O
B5: PEP75 (peptide)
peptide: HXEGTFTSDKSKYLDERAAQDFVXWLLDT
modifications: D-serine at 2; Lys 10 conjugated to γEγE-C16; Nle(εN3) at 24; C-terminal amide

Key:
Assay in all cases: cell-based or functional assay
[1] = target: human Glucagon receptor (GCGR) (human, UniProt P47871 26-477)
[2] = target: human GLP-1 receptor (GLP1R) (human, UniProt P43220 24-463)
human GLP-1 receptor = human GLP-1 receptor (human, UniProt P43220 24-463)
human glucagon receptor = human glucagon receptor (human, UniProt P47871 26-477)

Row | Binder | hGCGR_EC50 (nM), cAMP assay [1] [nM] | hGLP1R EC50 (nM), cAMP assay [2] [nM] | Incretin Receptor Assay (cAMP) EC50 (human GLP-1 receptor) [nM] | Incretin Receptor Assay (cAMP) EC50 (human glucagon receptor) [nM]
1 | B1 | 0.01 |  |  | 
2 | B2 | 2.27 | 0.5 |  | 
3 | B3 | 4.24 | 1.38 |  | 
4 | B4 |  |  | 0.007 | 0.009
5 | B5 | > 5 |  |  | 
